In the supplement of paper PMC10567573:

B1: ZNF263 (parent)
chain: HLTRHQRTHTGEKPYKCTLCGENF
B2: SMAD6 (parent)
chain: SGLVRRLWRSRVVPDREEGGSGGG
B3: SMG5 (parent)
chain: QEKLQVLMAEGLLPAVKVFLDWLR

Variants of: B1
Test: protein stability index of a GFP-peptide fusion (GPS, HEK-293T) (PSI 1-6); higher = more stable
Details: c terminus: a fixed tail appended
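Note: lentivirally expressed fusions sorted by FACS into six bins by GFP to DsRed ratio, PSI derived from sequencing read proportions per bin multiplied by bin number.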

Protein stability index of substitutions, site by site:
N23: G 4.03, P 2.54
L2: F 2.9, E 3.31
P14: W 3.26, L 3.14, S 2.79
T18: A 2.94
T8: W 2.29, G 2.9
C20: W 2.56, G 2.92, Q 3.44, S 3.23
T3: E 3.29, H 3.4, S 2.83, A 2.88
H5: V 2.27, A 2.69
E12: I 2.11, S 3.19
K16: L 2.33, M 3.17, I 2.97
H1: T 2.56, A 3.07, L 3.11
F24: T 3.85
Q6: Y 2.7, S 3.68, F 2.08
E22: L 2.08, C 2.29
Y15: L 2.81
L19: K 3.7, D 3.84, C 3.88
R4: Y 2.76, G 2.38, E 3.7
T10: W 2.82
H9: W 1.89
G11: A 3.15
G21: E 3.58, W 2.23, L 2.58, T 2.7, Y 2.97
C17: Q 3.46, Y 3.05, V 3.7
K13: H 2.9, E 3.64, T 3.54, P 2.88
R7: M 2.94

Variants of: B2
Test: as above
Details: c terminus: a fixed tail appended

Protein stability index, by site and new letter:
R9: G 3.27, N 3.96, T 2.82, H 3.69, P 4.85
V13: W 3.37, L 3.99, F 3.32, K 4.13, D 4.88
G22: C 3.04, F 2.98, E 4.04, I 3.87, A 3.84, R 4.48
R16: I 3.76, L 3.34, N 4.37, E 4.32, M 3.4, W 3.25, Q 3.67, S 4.7
R11: T 4.68, W 2.22, K 4.15, I 2.63, G 4.98
V4: E 4.63, G 3.41, K 4.45
L3: N 4.73, M 4.06, S 4.38, W 4.17, Q 3.88, T 3.54
R5: L 1.97, I 2.4, C 2.46, Q 3.72, A 3.76, S 3.27, M 3.3, H 4.21
S21: E 3.53, Y 3.09, V 3.37, W 2.9, D 4.54
P14: Y 3.02, K 4.3, N 3.77, D 2.83, L 3.18
S1: M 2.45, I 2.92, W 2.61, Q 5.24, H 3.81, C 2.09
L7: Q 4.4, Y 3.82, H 3.55, I 4.14, S 4, E 3.82
D15: E 4.31, I 2.75, M 3.01, N 3.96, K 3.35, T 4.33, P 3.62, H 3.55
G19: K 4.06, M 3.35, P 4.07, A 4.28, W 2.79
E17: R 2.93, C 4.26, D 4.12, G 3.86, T 3.31, V 3.71, Y 1.19, A 3.47, K 4.14, S 4.07
G2: K 3.6, W 2.29, S 4.17, D 2.93, A 2.15, H 4.14, F 2.93, E 2.35, L 3.51, P 4.79, V 3.03, M 3.19, N 4.17
W8: N 5.26, L 4.22, S 5.1, Q 5, K 4.64
R6: M 2.93, A 3.27, S 3.29, H 4, C 3.46
G24: F 2.44, K 3.78, H 2.83, T 4.01, C 4.91, Q 3.59, E 4
V12: N 4.22, P 3.67, I 4.07, Y 3.1, F 3.69, C 2.94, D 4.76, M 4.06
G20: A 4, W 1.99, I 3.06, V 2.44, C 3.04, Q 3.96, F 2.82, R 4.04, N 3.11, L 2.74
E18: N 2.42, A 2.9, F 2.68, Y 2.44, V 3.85, I 4.17, C 2.94, D 3.82, P 3.46
S10: W 2.6, N 3.89, H 2.24, F 2.4, A 3.76
G23: M 3.25, F 3.13, P 3.89, V 3.78, D 5.01, H 3.7, E 3.9, N 3.01, S 4.47

Variants of: B3
Test: as above
Details: c terminus: a fixed tail appended

Protein stability index: each site, then its substitutions
K3: F 1.53, Q 2.66, G 1.91, Y 2.15, E 2.25, M 1.5, L 1.78, C 2.03, V 2.02, R 3.73, W 1.48, T 1.48, N 1.91, S 1.79, H 1.96, A 4.03, I 1.45, D 2.02
Q5: I 2.86, C 2.11, S 2.8, L 2.5, E 4.03, P 2.22, K 2.45, M 2.19, N 1.67, A 2, Y 1.8, T 1.47, V 2.31, F 1.46, D 3.13, G 1.88, W 1.45, H 1.58
E2: G 1.6, C 2.47, N 2.86, Y 2.15, F 2.2, M 2.83, L 1.44, A 2.31, P 2.96, V 2.56, Q 2.92, H 3.82, I 2.23, W 1.56, S 3.11, K 2.38, D 2.26, T 2.68, R 2.37
V6: I 1.5, R 1.99, Y 3.07, C 2.14, W 2.51, Q 2.02, M 1.48, N 3.16, K 2.16, D 1.96, H 1.55, G 2.42, A 1.82, P 2, E 2.18
L7: F 1.8, A 2.4, D 1.94, C 1.54, V 2.07, S 1.67, N 2.47, K 2.49, E 2, R 4.07, M 1.64, P 2.26
L4: V 2.58, C 3.13, W 2.18, M 2.32, R 2.69, S 2.75, E 1.12, T 3.18, D 3.26, Y 4.02, I 1.91, F 2.71, H 2.2, G 3.1
Q1: S 2.88, M 2.37, E 3.01, R 1.57, G 2.22, K 4.12, D 2.79, I 2.95, W 1.95, L 3.5, T 1.96, N 1.62, P 2.09, Y 2.81, H 1.45, F 2.89, C 1.53, V 2.18, A 2.23
